B1: C19orf51 (parent)
chain: FAPQTGARPSETFARFCKSQESAL
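Also: lentivirally expressed fusions sorted by FACS into six bins by GFP to DsRed ratio, PSI derived from sequencing read proportions per bin multiplied by bin number.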

Variants of: B1
Assay: protein stability index of a GFP-peptide fusion (GPS, HEK-293T) (PSI 1-6); higher = more stable
Conditions: c terminus: a fixed tail appended
With FAPQTGARPSETFARFSKSQESAL the protein stability index was 1.74.
Variant FAPQTGARPSETFARFYKSQESAL has a protein stability index of 2.92.
Variant FAPQTGARPSETFARFGKSQESAL has a protein stability index of 3.94.
FAPQTGARPSETFARFVKSQESAL showed a protein stability index of 2.31.
FAPQTGARPSERFARFCKSQESAL showed a protein stability index of 2.39.
For FAPQTGARPSEHFARFCKSQESAL, the protein stability index was 1.87.
In the case of FAPQTGARPSEVFARFCKSQESAL, the protein stability index is reported as 2.77.
For FAPQTGARPSELFARFCKSQESAL, the protein stability index was 2.87.
In the case of FAPQTGARPSEEFARFCKSQESAL, the protein stability index is reported as 1.4.
FAPQTGARPSENFARFCKSQESAL gave a protein stability index of 2.66.
Variant FAPQTGARPSEDFARFCKSQESAL has a protein stability index of 1.99.
FAPQTGARPSEGFARFCKSQESAL gave a protein stability index of 1.46.
In the case of FAPQTGARPSEQFARFCKSQESAL, the protein stability index is reported as 1.35.
Variant FAPQTGARPSETFCRFCKSQESAL has a protein stability index of 1.69.
FAPQTGARPSETFQRFCKSQESAL gave a protein stability index of 2.63.
Variant FAPQTGARPSETFDRFCKSQESAL has a protein stability index of 1.69.
Variant FAPQTGARPSETFERFCKSQESAL has a protein stability index of 1.77.
In the case of FAPQTGARPSETFGRFCKSQESAL, the protein stability index is reported as 1.74.
Variant FAPQTGARPSETFMRFCKSQESAL has a protein stability index of 3.45.
Variant FAPQTGARPSETFTRFCKSQESAL has a protein stability index of 2.09.
FAPQTGARPSETFFRFCKSQESAL gave a protein stability index of 1.33.
FAPQTGALPSETFARFCKSQESAL showed a protein stability index of 3.45.
FAPQTGAMPSETFARFCKSQESAL showed a protein stability index of 1.87.
With FAPQTGASPSETFARFCKSQESAL the protein stability index was 2.38.
In the case of FAPQTGATPSETFARFCKSQESAL, the protein stability index is reported as 1.89.
In the case of FAPQTGAKPSETFARFCKSQESAL, the protein stability index is reported as 2.84.
Variant FAPQTGAWPSETFARFCKSQESAL has a protein stability index of 2.52.
FAPQTGAYPSETFARFCKSQESAL gave a protein stability index of 1.81.
FAPQTGAGPSETFARFCKSQESAL showed a protein stability index of 1.94.
In the case of FAPQTGARPSETFANFCKSQESAL, the protein stability index is reported as 3.83.
Work on FAPQTGARPSETFATFCKSQESAL yielded a protein stability index of 2.14.
For FAPQTGARPSETFAHFCKSQESAL, the protein stability index was 1.69.
For FAPQTGARPSETFAQFCKSQESAL, the protein stability index was 1.16.
With FAPQTGARPSETFAAFCKSQESAL the protein stability index was 2.94.
For FAPQTGARPSETFACFCKSQESAL, the protein stability index was 3.88.
Work on FAPQTGARPSETFADFCKSQESAL yielded a protein stability index of 1.27.
FAPQTGARPSETFAEFCKSQESAL gave a protein stability index of 2.65.
Work on FAPQTGARPSETFAFFCKSQESAL yielded a protein stability index of 1.72.
Variant FAPQTGARPCETFARFCKSQESAL has a protein stability index of 2.34.
FAPQTGARPRETFARFCKSQESAL showed a protein stability index of 2.34.
Variant FAPQTGARPAETFARFCKSQESAL has a protein stability index of 2.32.
With FAPQTGARPEETFARFCKSQESAL the protein stability index was 1.43.
Work on FAPQTGARPFETFARFCKSQESAL yielded a protein stability index of 2.11.
FAPQTGARPHETFARFCKSQESAL showed a protein stability index of 2.76.
Work on FAPQTGARPSETFARFCKSQEHAL yielded a protein stability index of 1.98.
With FAPQTGARPSETFARFCKSQEVAL the protein stability index was 1.8.
Variant FAPQTGARPSETFARFCKSQEEAL has a protein stability index of 1.58.
With FAPQTGARPSETFARFCKSQECAL the protein stability index was 2.31.
Work on FAPQTGARPSETFARFCKSQEYAL yielded a protein stability index of 1.93.
In the case of FAPQTGARPSETFARFCKSQELAL, the protein stability index is reported as 2.08.
Work on FAPQTGARPSETFARFCKSQEGAL yielded a protein stability index of 3.57.
For FAPQTGARPSETFARFCKSQEFAL, the protein stability index was 2.18.
Work on FAPQTGARPSETQARFCKSQESAL yielded a protein stability index of 2.12.
FAPQTGARPSETYARFCKSQESAL gave a protein stability index of 1.49.
Variant FAPQTGARPSETHARFCKSQESAL has a protein stability index of 1.48.
In the case of FAPQTGARPSETLARFCKSQESAL, the protein stability index is reported as 2.54.
Variant FAPQTGARPSETCARFCKSQESAL has a protein stability index of 3.95.
In the case of FAPQTGARPSETRARFCKSQESAL, the protein stability index is reported as 1.94.
With FAPQTGARPSETAARFCKSQESAL the protein stability index was 1.89.
In the case of FAPQTGARPSETNARFCKSQESAL, the protein stability index is reported as 2.49.
Work on FAPQTGARPSETTARFCKSQESAL yielded a protein stability index of 1.82.
In the case of FAPQTGARPSETMARFCKSQESAL, the protein stability index is reported as 1.92.
With FAPQTGARPSETVARFCKSQESAL the protein stability index was 2.92.
In the case of FAPQTGARPSETGARFCKSQESAL, the protein stability index is reported as 2.
FAPQTGARMSETFARFCKSQESAL showed a protein stability index of 2.92.
Variant FAPQTGARRSETFARFCKSQESAL has a protein stability index of 2.62.
With FAPQTGARYSETFARFCKSQESAL the protein stability index was 3.62.
With FAPQTGARGSETFARFCKSQESAL the protein stability index was 2.57.
In the case of FAPQTGARISETFARFCKSQESAL, the protein stability index is reported as 2.25.
FAPQTGARDSETFARFCKSQESAL gave a protein stability index of 1.23.
FAPQTGARNSETFARFCKSQESAL gave a protein stability index of 2.23.
In the case of FAPQTGARLSETFARFCKSQESAL, the protein stability index is reported as 1.06.
In the case of FAPQTGARCSETFARFCKSQESAL, the protein stability index is reported as 3.58.
Variant FAPQTFARPSETFARFCKSQESAL has a protein stability index of 2.86.
For FAPQTCARPSETFARFCKSQESAL, the protein stability index was 1.06.
In the case of FAPQTLARPSETFARFCKSQESAL, the protein stability index is reported as 2.07.
For FAPQTYARPSETFARFCKSQESAL, the protein stability index was 1.86.
Work on FAPQTMARPSETFARFCKSQESAL yielded a protein stability index of 2.32.
FAPQTWARPSETFARFCKSQESAL showed a protein stability index of 2.83.
FAPQTEARPSETFARFCKSQESAL showed a protein stability index of 1.67.
Work on FAPQTSARPSETFARFCKSQESAL yielded a protein stability index of 1.9.
With FAPQTIARPSETFARFCKSQESAL the protein stability index was 2.25.
With FAPQTDARPSETFARFCKSQESAL the protein stability index was 2.04.
Work on FAPQTAARPSETFARFCKSQESAL yielded a protein stability index of 2.12.
For FAPQTGARPSETFARFCKSQESAN, the protein stability index was 2.58.
With FAPQTGARPSETFARFCKSQESAT the protein stability index was 2.27.
FAPQTGARPSETFARFCKSQESAY gave a protein stability index of 3.96.
In the case of FAPQTGARPSETFARFCKSQESAK, the protein stability index is reported as 2.02.
FAPQTGARPSETFARFCKSQESAR showed a protein stability index of 4.53.
In the case of FAPQTGARPSETFARFCKSQESAQ, the protein stability index is reported as 1.23.
In the case of FAPQTGARPSETFARFCKSQESAM, the protein stability index is reported as 1.56.
For FAPQTGARPSETFARFCKSQESAE, the protein stability index was 3.37.
Work on FAPQTGARPSETFARFCKSQESAC yielded a protein stability index of 3.32.
With FAFQTGARPSETFARFCKSQESAL the protein stability index was 1.7.

Reference: the supplement of paper PMC10567573
